Test results published in US9422541.

Target: T1, Recombinant C5a produced as an N-term His-tagged fusion (HT-C5a)
T1 chain: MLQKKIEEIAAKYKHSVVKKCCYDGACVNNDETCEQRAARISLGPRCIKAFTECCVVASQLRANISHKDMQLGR

B1: ScpA, bacterial C5a protease from Streptococcus pyogenes (protein)
chain: DANDLAPQAPAKTADTPATSKATIRDLNDPSQVKTLQEKAGKGAGTVVAVIDAGFDKNHEAWRLTDKTKARYQSKEDLEKAKKEHGITYGEWVNDKVAYYHDYSKDGKTAVDQEHGTHVSGILSGNAPSETKEPYRLEGAMPEAQLLLMRVEIVNGLADYARNYAQAIRDAVNLGAKVINMSFGNAALAYANLPDETKKAFDYAKSKGVSIVTSAGNDSSFGGKTRLPLADHPDYGVVGTPAAADSTLTVASYSPDKQLTETAMVKTDDQQDKEMPVLSTNRFEPNKAYDYAYANRGMKEDDFKDVKGKIALIERGDIDFKDKVANAKKAGAVGVLIYDNQDKGFPIELPNVDQMPAAFISRKDGLLLKDNPQKTITFNATPKVLPTASGTKLSRFSSWGLTADGNIKPDIAAPGQDILSSVANNKYAKLSGTSMSAPLVAGIMGLLQKQYETQYPDMTPSERLDLAKKVLMSSATALYDEDEKAYFSPRQQGAGAVDAKKASAATMYVTDKDNTSSKVHLNNVSDKFEVTVTVHNKSDKPQELYYQATVQTDKVDGKHFALAPKVLYEASWQKITIPANSSKQVTVPIDASRFSKDLLAQMKNGYFLEGFVRFKQDPTKEELMSIPYIGFRGDFGNLSAVEKPIYDSKDGSSYYHEANSDAKDQLDGDGLQFYALKNNFTALTTESNPWTIIKAVKEGVENIEDIESSEITETIFAGTFAKQDDDSHYYIHRHANGEPYAAISPNGDGNRDYVQFQGTFLRNAKNLVAEVLDKEGNVVWTSEVTEQVVKNYNNDLASTLGSTRFEKTRWDGKDKDGKVVANGTYTYRVRYTPISSGAKEQHTDFDVIVDNTTPEVATSATFSTEDRRLTLASKPKTSQPVYRERIAYTYMDEDLPTTEYISPNEDGTFTLPEEAETMEGATVPLKMSDFTYVVEDMAGNITYTPVTKLLEGHS
- C5a-ase activity (SDS-PAGE of C5a treated with ScpA; 42 nM ScpA with 37 µM HT-C5a, 30 min at 20° C.): the ScpA cleaved C5a at a single site
- mass loss of cleaved HT-C5a by MALDI-TOF MS: a loss of 830 Da, consistent with the removal of seven residues from the C terminal
